Measured values from the nanobody polyreactivity screen of Harvey et al. (2022).

experiment: yeast display, Sf9 membrane polyspecificity reagent, FACS + sequencing; frameworks hold sequencing errors
Method in brief: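 Polyreactivity labels are assigned by the sorting gate from which each nanobody was recovered. The gates were low and high (top ~1%), set on anti-HA fluorescence for expression and streptavidin fluorescence for reagent binding. Before sorting, galactose-induced (36–48 hours) yeast display cells were stained for 1 hour at 4 °C with 10% biotinylated, detergent-solubilized Sf9 membrane reagent.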

| Sequence | polyreactivity (PSR sort gate) |
| --- | --- |
| QVQLVESGGGLVQAGGILRLICAASGSIFGKYTMGWYRHAPGKERELVAGITYRAGSTYYADSVKGRFTISRDNAKNTVYLQMNSLKPEDTAVYYCAARFYFRWYYYGSYANYWGQGTQVTVSS | high polyreactivity |
| QVQLVESGGGLVQAGGILRLICAAYGRILAYNSMGWYRQAPGKQRELVAGISWSGGSTYYADSVKGRFTISRDNAKNTVYLQMNSLKPEDTAVYYCAKTPYYRYAKQRYTSSHDYWGQGTQVTVSS | high polyreactivity |
| QVQLVESGGGLVQAGGILRLICADSGSTFAQYAMGWYRPAPGKERELVAAISRLGASTYYAYSVKGRFTISRDIAKNTVYLQMNSLKPEDTVVYYCNAVRGEKMGYWGQGTQVTVSS | high polyreactivity |
| QVQLVESGGGLVQAGGILRLNCAASGFIFRRYAMGWSRQAPGKERELVAAISSGGTSTYYADSVKGRFTISRDNAKYTVYLQKNSLKPEDTAVSYCNVDTDPYYWGGDYYWGQGTQVTVSS | high polyreactivity |
| QVQLVESGGGLVQAGGILRLSCAAPGSTFRKCAMGWYRQAPGKERELVAAISRGGTSTYYADSVKGRFTISRDNAKNTVYLQMNSLKPEDTAVYSCRYFRYSYGTKYDYWGQGTQVTVSS | high polyreactivity |
| QVQLVESGGGLVQAGGILRLSCAASGFIFAKYAMVWYRQAPGKERELVAAITSGGSTNYADSVKGRFTISRDNAKNTVYLQMNSLKPEDTAVYYCNRGFDWWYRYRHYDYWGQGTQVTVSS | low polyreactivity |
| QVQLVESGGGLVQAGGILRLSCAASGFIFVDYSMGWYREAPAKESQLVAAISGRDGSTYYADSVKGRFTISRDNAKNTVYLQMNSLKPEDTAVYYCAADRIHSGTLYDYDYWGQGTQVTESS | low polyreactivity |
| QVQLVESGGGLVQAGGILRLSCAASGFIFVDYVMGWSRQAPGKERELVAAINRNGGRPYYADSVKGRFTISRDNEKNTVYLQMNRLKPEDTAVYYCAAVYRSDRYHWYYYWGQGTQVTVSS | high polyreactivity |
| QVQLVESGGGLVQAGGILRLSCAASGIIFQQYAMGWYRQAPGKERELVAAITYSGDGTYYADSEKGRFTISRDNAKNTVYLQMNSLKPEDTAVYYCNTDRKSRWARYEYWGQGTQVTVSS | low polyreactivity |
| QVQLVESGGGLVQAGGILRLSCAASGLTFSRYDMGWYRPEPGKERELVAAITWSGSSTYYADSVKGRFTLSRDNAKNTVYLQMNSLKRVDTAVYYCAARYGYSRGPYYRSYYWGQGTQVTVSS | high polyreactivity |
| QVQLVESGGGLVQAGGILRLSCAASGNIFPLYAMGWYRQAPGKERELVAAITWSTTSTYYADSVKGRFTISRDNAKNTVYLQMNSLKPEDTAVYYCAAGAYRRNKSDYYYWGQGTQVTVSS | low polyreactivity |
| QVQLVESGGGLVQAGGILRLSCAASGRIFRVNTMGWYRKAPGKERELVAAIRSSGTRTYYADSVKGRFTISRDNAKNTVYLQMNSVKPEDTAVYYCAAYAWRYQAWEFGYWGQGTQVTVSS | high polyreactivity |
| QVQLVESGGGLVQAGGILRLSCAASGRIFYYNAMGGYRQAPGKERELVAAITSGGSTNYADSVKGRFTISRDNAKNTVYLQMNSLKPEDTAVYYCAADYYYYVAGVHYDYWGQGTQVTVSS | low polyreactivity |
| QVQLVESGGGLVQAGGILRLSCAASGRIIRSYAMGWYRHAPGKERELVAAITSGGSTNYADSVKGRFTISRDNANNTVYLQMNSLKPEDTAVYYCAARWPWYGKLRYYYWGQGTQVTVSS | high polyreactivity |
| QVQLVESGGGLVQAGGILRLSCAASGRILDGYAMGWYRQAPGKERELVAAISSRGGRTYYADSVKGRFTISRDNAKNTVYLQMNSLKPEDTAVYYCAATRYGTYEYNYWGQGTQVTVSS | high polyreactivity |
| QVQLVESGGGLVQAGGILRLSCAASGRTFDSNAMGWYRQAPGKERELVAAISWSGGSTYYADSVKGRFTISRDNAKNTVYLQMNSLKPEDTAVYYCNRLGRHAPATRYGYWGQGTQVTVSS | high polyreactivity |
| QVQLVESGGGLVQAGGILRLSCAASGRTFGLYAMGWYRQAPGKERELVAAISWGGGRTYYADSVKGRFTISRDNAKNTVDLQMNSVKPEYTAVYYCNAVYSPRYYVGGYDYWGQGTHVTVSS | high polyreactivity |
| QVQLVESGGGLVQAGGILRLSCAASGRTFGRNAMGWYRQAPGKERELVARITSGGSTSYADSVKGRFTISRDNAKNTVYLQMNSLKPEDTAVYYCAKGSYGVAYFTHTARYYGGYEYWGQGTQVTVSS | high polyreactivity |
| QVQLVESGGGLVQAGGILRLSCAASGRTFMYYAMGWYRQAPGKDMELVAAIRRGSSTYYADSVKGRFTISRDNAKYSVYLQMNSLKPEDTAVYYCAARGRYRIGQGRYGKRYDYWGHGTQVTVSS | high polyreactivity |
| QVQLVESGGGLVQAGGILRLSCAASGRTIYYYAMGRYRQAPRKERELVASISWSGGSTYYADSVKGRFTISRDNAKNTVYLQMNSLKPEDTAVSYCNAQYHTYRWLYAVYLSGDYWGQGTQVTVSS | low polyreactivity |

| Sequence | polyreactivity (PSR sort gate) |
| --- | --- |
| QVQLVESGGGLVQAGGILRLSCAASGSIFAGYAMGWYRQAPGKERELVAVITWRTDITYADSVKGRFTISRDNAKNTDYLHMNSLKPDDTAVYYCAADSDSTTRLFGDEYWGQGTQVTVSS | low polyreactivity |
| QVQLVESGGGLVQAGGILRLSCAASGSIFDVYAMGWYRQAPGKERELVAAISRSGGRTYYADSVKGRFTISRDNAKNRVYLQMNSLKPEDTAVYYCATYPCNWDLDYWGHGTQVTVSS | high polyreactivity |
| QVQLVESGGGLVQAGGILRLSCAASGSIFLYNALGWYRQAPGKERELVAAISKSGGSTYYADSVKGRFTISRDNAKNTVYLQMNSLKPEDTAVYYCAAGYGRLIRYGSDYDYWGQGTQVTVSS | low polyreactivity |
| QVQLVESGGGLVQAGGILRLSCAASGSIFSGNDMGWYRQAPGKERELVASINRSGGSTNYAVSVKGRFTISRDNAKNTVYLQMNSLKPEDTAVYYCARDFSFLGNASARLDYDYWGQGSQVTVSS | low polyreactivity |
| QVQLVESGGGLVQAGGILRLSCAASGSIFVGNAMGGYRQAPGKERELVATISWSGGSTYYADSVKGRFTISRDNAKNTVYLQMNCLKPEDSAVYYCAKTPYRRYRYGGYTYRTYDYWGQGTQVTVSS | low polyreactivity |
| QVQLVESGGGLVQAGGILRLSCAASGSIVTDNAMGWYRQAPGKERELVAAITSSGNTNYADSVKGRFTISRDNAKNTVYLQINSLKPEDTAVYYCAADSYYKHWTDWLPVGEDYWGQGTQVTVSS | low polyreactivity |
| QVQLVESGGGLVQAGGILRLSCAASGSTFTGYAMGWYRQAPGKERELVAAISSSGGRTYYAASVKGRFTISRDNANNTVYLQMNSLKPEVTAVYYCATDHYRYGGYSWGQGTEVTVSS | high polyreactivity |
| QVQLVESGGGLVQAGGILRLSCAASGSTFVRYVMVWYRQAPGKERELVAAISRRGGSTYYADSVKGRFTISRDNAKNTVYLQMNSLKPEDTAVNYCARTVGYRTLLESDSWGQGTQVTVSS | high polyreactivity |
| QVQLVESGGGLVQAGGILRLSCAASGSTFYSYAMGWYRQAPGKERELVAYIDWSGGYTYYADSVKGRFTISRDNAKNTVYLQMNSLKPEDTAVYYCNAERGATGYYVTGDDYWGQGTQVTVSS | low polyreactivity |
| QVQLVESGGGLVQAGGILRLSCASSGRIFTFYAMGWYRQAPGKERELVAAISSGGSTYYADSVKGLFTISRDNAKNTVYLQMNSLKPEDTAVYYCAAEPVWYADYDYWGQGTQVTVSS | low polyreactivity |
| QVQLVESGGGLVQAGGILRLSCPASGSIIVFYAMGWYRQAPGKEREIVATITWSGTSTYYADSVKGRFTISRDYAKNTVYLQKNSLKPEDTAVYYCNARTVKASYVGYNYWGQGTQVTVSS | high polyreactivity |
| QVQLVESGGGLVQAGGILRLSCSASGYISKVYVMGWYRQAPGKERELVAAITNGGRTNYADSVKGRFTISRDNAKNTVYLQMNSLKPEDTAVYYCAARPRWHIRYNYWGQGTQVTVSS | high polyreactivity |
| QVQLVESGGGLVQAGGILRLSFAASGFISLDYAMGWYRQAPGKERELVAAISNGGGTNYADSVKGRFTISRDNAKNTVYLQMNSLKPEDTAVYYCNASVSYGYEYDSWGQGTQVTVSS | low polyreactivity |
| QVQLVESGGGLVQAGGILRLSSAASGFTFGYYAMGWYRQAPGTQRELVAAINWSGGRTYYADSVKGRFTISRDNAKNTVYLQMNSLKPEDTAVYYCAADPKKGRQMYYWGQGTQVTVSS | high polyreactivity |
| QVQLVESGGGLVQAGGILRLTCAASGRTFYKNAMGWYRQAPGKERELVAAIDWIDGNTYYADSVKGRFTISRDNAKNTVYLQMNSLKPEDTAVYYCAAEGYDLGDYWGQGTQVTVSS | low polyreactivity |
| QVQLVESGGGLVQAGGILSLSCAASGNTFKGNAMGWYRQAPGKERELVAAISWSTDSTYYADSVKGRFTISRDNAKNSVYLQMNSLKPEDTAIYYCAADYSHLPIAWYYYWGQGTQVTVSS | low polyreactivity |
| QVQLVESGGGLVQAGGMLRLSCAASGRIFGVNAMGWYRQAPGKERELVAVISSGGSTYYADSVKGRFTISRDNAKNTVYVQMNSLKPEDTAVYYCNAVVGRWFPYNLSDYWGQGTQVTVSS | low polyreactivity |
| QVQLVESGGGLVQAGGNLRLSCAASGFIFTRNAMGWYRQAPGKERELVAAISTSGDRTYYADSVKGRFTISRDNAKNTVYLQMNSLKPEDTAVYYCAVVRPRYVVRYDYWGQGTQVNVSS | high polyreactivity |
| QVQLVESGGGLVQAGGRHRLSCAPSGSIFRFYVMGWYIQAPGKERELVAAISIGGSTNYADSVKGRFTISRDNAKNTVYLQMNSLKPEDSAVYYCAADGPTYWWTTQWYWGDYWGQGTQVTVSS | low polyreactivity |
| QVQLVESGGGLVQAGGRLRFSCADSGITFLRYAIGWSRQAPGKERELVAGISYTGGSTNYADSVKGRFTISRDNAKNTVYLQMNSLKPEDSSVYYCAAQGYRWYDYWGQGTQVTVSS | high polyreactivity |
